B1: Nb 1-22 (VHH)
VHH: HVQLVESGGGLVQPGGSLRLSCAASGRSFNSYLMGWFRQAPGKEREFVAWISGSPHDIIRYRDSVKDRFTISRDNAKNTVYLQMNSLKPVDTAVYYCAVGSLRVGSFSPDYWGQGTQVTVSS
B2: Nb 2-45 (VHH)
VHH: QVQLVESGGGLVQAGGSLRLSCTASGYDFSILAIAWYRQAPGKERELVAAISRVGSTDYADSVKGRFTISRDNTKNTVSLQMDSLKPEDTAVYYCNAGIPMTTVLSGLGFWGQGTQVTVSS
B3: Nb 2-38 (VHH)
VHH: QVQLVESGGGLVQAGGSLRLSCAAAARFSTSAMGWFRQAPGKEREFVAAISWSNTNTHYADTVKGRFTISADTAKETVDLQMNSLKPEDTAVYYCVQGGWGIRQPIIVDYWGKGTQVTVSS
B4: Nb 2-31 (VHH)
VHH: QVQLVESGGGLVQAGESLRLSCAASKPTFRNFAAGWFRQTPGKDREFVAVIEYDGDSAYYADSVKGRFTISRDNAKNTVYLQMNRLKPGDTAVYICAIGGNHYDPSKYYTADEYDYWGQGTQVTVSS

This assay has as its target WT RBD of SARS-CoV-2 (S protein residues 319–539) (SARS-CoV-2, wild type (GenBank …, UniProt P0DTC2)). The assay can be described thus: ELISA. A general note: ELISA stands for enzyme-linked immunosorbent assay.
Regarding B1, the binding result is “binds”.

For the molecule B2, the binding result is on record as “binds”. The same measure for B3: “binds”; for B4: “binds”.

The values above are taken from doi:10.1101/2025.08.07.669152 (bioRxiv, 2025).
